Measurements as given in doi:10.1101/2023.08.15.553389.

Molecular target: IgG1 Fc L234C/E382A ("less-crystallisable" Fc with L234C exchange)
Test: crystal structure

B1: EndoS2 (38-843) D184A/E186L, inactive exchange variant (enzyme)
chain: EKTVQTGKTDQQVGAKLVQEIREGKRGPLYAGYFRTWHDRASTGIDGKQQHPENTMAEVPKEVDILFVFHDHTASDSPFWSELKDSYVHKLHQQGTALVQTIGVNELNGRTGLSKDYPDTPEGNKALAAAIVKAFVTDRGVDGLDIAILHEFTNKRTPEEDARALNVFKEIAQLIGKNGSDKSKLLIMDTTLSVENNPIFKGIAEDLDYLLRQYYGSQGGEAEVDTINSDWNQYQNYIDASQFMIGFSFFEESASKGNLWFDVNEYDPNNPEKGKDIEGTRAKKYAEWQPSTGGLKAGIFSYAIDRDGVAHVPSTYKNRTSTNLQRHEVDNISHTDYTVSRKLKTLMTEDKRYDVIDQKDIPDPALREQIIQQVGQYKGDLERYNKTLVLTGDKIQNLKGLEKLSKLQKLELRQLSNVKEITPELLPESMKKDAELVMVGMTGLEKLNLSGLNRQTLDGIDVNSITHLTSFDISHNSLDLSEKSEDRKLLMTLMEQVSNHQKITVKNTAFENQKPKGYYPQTYDTKEGHYDVDNAEHDILTDFVFGTVTKRNTFIGDEEAFAIYKEGAVDGRQYVSKDYTYEAFRKDYKGYKVHLTASNLGETVTSKVTATTDETYLVDVSDGEKVVHHMKLNIGSGAIMMENLAKGAKVIGTSGDFEQAKKIFDGEKSDRFFTWGQTNWIAFDLGEINLAKEWRLFNAETNTEIKTDSSLNVAKGRLQILKDTTIDLEKMDIKNRKEYLSNDENWTDVAQMDDAKAIFNSKLSNVLSRYWRFCVDGGASSYYPQYTELQILGQRLSNDVANTLKD
- stoichiometry N (EndoS2 molecules per Fc homodimer): 2
